Laboratory results as given in FireProtDB (doi:10.1006/jmbi.1997.1365).
Several values for one entry are separate records, joined by “and”; a condition that tells them apart may be missing. Equal entries are not always repeated.

B1: Lysozyme C, P61626 (parent)
chain: MKALIVLGLVLLSVTVQGKVFERCELARTLKRLGMDGYRGISLANWMCLAKWESGYNTRATNYNAGDRSTDYGIFQINSRYWCNDGKTPGAVNACHLSCSALLQDNIADAVACAKRVVRDPQGIRAWVAWRNRCQNRDVRQYVQGCGV

Variants of: B1
Conditions: Homo sapiens; pH 2.67; Thermal; DSC; glycine 0.05 M; reversible: yes; structure 1LZ1; whole UniProt chain shown

Variant	Tm	heat capacity change of unfolding	unfolding enthalpy (calorimetric)	unfolding enthalpy (van 't Hoff)
MKALIVLGLVLLSVTVQGKVFERCELARTLKRLGMDGYRGASLANWMCLAKWESGYNTRATNYNAGDRSTDYGIFQINSRYWCNDGKTPGAVNACHLSCSALLQDNIADAVACAKRVVRDPQGIRAWVAWRNRCQNRDVRQYVQGCGV [I41A]	56.2 °C	1.51 kcal/mol/K	98.1 kcal/mol	103 kcal/mol

Same assay, conditions: Homo sapiens; pH 2.7; 64.9 °C; Thermal; DSC; glycine 0.05 M; reversible: yes; structure 1LZ1; whole UniProt chain shown

Variant	ddG of mutation (higher = less stable)	heat capacity change of unfolding	unfolding enthalpy (calorimetric)	unfolding enthalpy (van 't Hoff)
MKALIVLGLVLLSVTVQGKVFERCELARTLKRLGMDGYRGASLANWMCLAKWESGYNTRATNYNAGDRSTDYGIFQINSRYWCNDGKTPGAVNACHLSCSALLQDNIADAVACAKRVVRDPQGIRAWVAWRNRCQNRDVRQYVQGCGV [I41A]	2.54 kcal/mol	1.2 kcal/mol/K	109 kcal/mol	116 kcal/mol
MKALIVLGLVLLSVTVQGKVFERCELARTLKRLGMDGYRGISLANWMCLAKWESGYNTRATNYNAGDRSTDYGIFQANSRYWCNDGKTPGAVNACHLSCSALLQDNIADAVACAKRVVRDPQGIRAWVAWRNRCQNRDVRQYVQGCGV [I77A]	1.72 kcal/mol	1.46 kcal/mol/K	115 kcal/mol	121 kcal/mol
MKALIVLGLVLLSVTVQGKVFERCELARTLKRLGMDGYRGISLANWMCLAKWESGYNTRATNYNAGDRSTDYGIFQGNSRYWCNDGKTPGAVNACHLSCSALLQDNIADAVACAKRVVRDPQGIRAWVAWRNRCQNRDVRQYVQGCGV [I77G]	3.83 kcal/mol	1.24 kcal/mol/K	106 kcal/mol	110 kcal/mol

Same assay, conditions: Homo sapiens; pH 2.7; Thermal; DSC; glycine 0.05 M; reversible: yes; structure 1LZ1; whole UniProt chain shown

Variant	Tm	change of melting temperature, mutant - wild type (higher = more stable)	heat capacity change of unfolding	unfolding enthalpy (calorimetric)	unfolding enthalpy (van 't Hoff)
MKALIVLGLVLLSVTVQGKVFERCELARTLKRLGMDGYRGASLANWMCLAKWESGYNTRATNYNAGDRSTDYGIFQINSRYWCNDGKTPGAVNACHLSCSALLQDNIADAVACAKRVVRDPQGIRAWVAWRNRCQNRDVRQYVQGCGV [I41A]	56.8 °C	-8.1 °C	1.2 kcal/mol/K	–	–
MKALIVLGLVLLSVTVQGKVFERCELARTLKRLGMDGYRGISLANWMCLAKWESGYNTRATNYNAGDRSTDYGIFQANSRYWCNDGKTPGAVNACHLSCSALLQDNIADAVACAKRVVRDPQGIRAWVAWRNRCQNRDVRQYVQGCGV [I77A]	59.7 °C	-5.2 °C	1.46 kcal/mol/K	–	–
MKALIVLGLVLLSVTVQGKVFERCELARTLKRLGMDGYRGISLANWMCLAKWESGYNTRATNYNAGDRSTDYGIFQGNSRYWCNDGKTPGAVNACHLSCSALLQDNIADAVACAKRVVRDPQGIRAWVAWRNRCQNRDVRQYVQGCGV [I77G]	52 °C and 52.2 °C	-12.7 °C	0.62 kcal/mol/K and 1.24 kcal/mol/K	90.9 kcal/mol	92.8 kcal/mol

Same assay, conditions: Homo sapiens; pH 2.96; Thermal; DSC; glycine 0.05 M; reversible: yes; structure 1LZ1; whole UniProt chain shown

Variant	Tm	heat capacity change of unfolding	unfolding enthalpy (calorimetric)	unfolding enthalpy (van 't Hoff)
MKALIVLGLVLLSVTVQGKVFERCELARTLKRLGMDGYRGASLANWMCLAKWESGYNTRATNYNAGDRSTDYGIFQINSRYWCNDGKTPGAVNACHLSCSALLQDNIADAVACAKRVVRDPQGIRAWVAWRNRCQNRDVRQYVQGCGV [I41A]	62 °C	1.08 kcal/mol/K	105 kcal/mol	111 kcal/mol

Same assay, conditions: Homo sapiens; pH 2.49; Thermal; DSC; glycine 0.05 M; reversible: yes; structure 1LZ1; whole UniProt chain shown

Variant	Tm	heat capacity change of unfolding	unfolding enthalpy (calorimetric)	unfolding enthalpy (van 't Hoff)
MKALIVLGLVLLSVTVQGKVFERCELARTLKRLGMDGYRGISLANWMCLAKWESGYNTRATNYNAGDRSTDYGIFQANSRYWCNDGKTPGAVNACHLSCSALLQDNIADAVACAKRVVRDPQGIRAWVAWRNRCQNRDVRQYVQGCGV [I77A]	55.9 °C	0.84 kcal/mol/K	101 kcal/mol	108 kcal/mol
MKALIVLGLVLLSVTVQGKVFERCELARTLKRLGMDGYRGISLANWMCLAKWESGYNTRATNYNAGDRSTDYGIFQGNSRYWCNDGKTPGAVNACHLSCSALLQDNIADAVACAKRVVRDPQGIRAWVAWRNRCQNRDVRQYVQGCGV [I77G]	48.1 °C	0.79 kcal/mol/K	84.4 kcal/mol	89.7 kcal/mol

Same assay, conditions: Homo sapiens; pH 2.66; Thermal; DSC; glycine 0.05 M; reversible: yes; structure 1LZ1; whole UniProt chain shown

Variant	Tm	heat capacity change of unfolding	unfolding enthalpy (calorimetric)	unfolding enthalpy (van 't Hoff)
MKALIVLGLVLLSVTVQGKVFERCELARTLKRLGMDGYRGISLANWMCLAKWESGYNTRATNYNAGDRSTDYGIFQANSRYWCNDGKTPGAVNACHLSCSALLQDNIADAVACAKRVVRDPQGIRAWVAWRNRCQNRDVRQYVQGCGV [I77A]	59.1 °C	1.2 kcal/mol/K	106 kcal/mol	114 kcal/mol

Same assay, conditions: Homo sapiens; pH 2.8; Thermal; DSC; glycine 0.05 M; reversible: yes; structure 1LZ1; whole UniProt chain shown

Variant	Tm	heat capacity change of unfolding	unfolding enthalpy (calorimetric)	unfolding enthalpy (van 't Hoff)
MKALIVLGLVLLSVTVQGKVFERCELARTLKRLGMDGYRGISLANWMCLAKWESGYNTRATNYNAGDRSTDYGIFQANSRYWCNDGKTPGAVNACHLSCSALLQDNIADAVACAKRVVRDPQGIRAWVAWRNRCQNRDVRQYVQGCGV [I77A]	61.5 °C	1.2 kcal/mol/K	110 kcal/mol	115 kcal/mol

Same assay, conditions: Homo sapiens; pH 2.98; Thermal; DSC; glycine 0.05 M; reversible: yes; structure 1LZ1; whole UniProt chain shown

Variant	Tm	heat capacity change of unfolding	unfolding enthalpy (calorimetric)	unfolding enthalpy (van 't Hoff)
MKALIVLGLVLLSVTVQGKVFERCELARTLKRLGMDGYRGISLANWMCLAKWESGYNTRATNYNAGDRSTDYGIFQANSRYWCNDGKTPGAVNACHLSCSALLQDNIADAVACAKRVVRDPQGIRAWVAWRNRCQNRDVRQYVQGCGV [I77A]	64.5 °C	1.63 kcal/mol/K	115 kcal/mol	120 kcal/mol

Same assay, conditions: Homo sapiens; pH 2.82; Thermal; DSC; glycine 0.05 M; reversible: yes; structure 1LZ1; whole UniProt chain shown

Variant	Tm	heat capacity change of unfolding	unfolding enthalpy (calorimetric)	unfolding enthalpy (van 't Hoff)
MKALIVLGLVLLSVTVQGKVFERCELARTLKRLGMDGYRGISLANWMCLAKWESGYNTRATNYNAGDRSTDYGIFQGNSRYWCNDGKTPGAVNACHLSCSALLQDNIADAVACAKRVVRDPQGIRAWVAWRNRCQNRDVRQYVQGCGV [I77G]	54.6 °C	0.65 kcal/mol/K	94.7 kcal/mol	97.6 kcal/mol

Same assay, conditions: Homo sapiens; pH 3.02; Thermal; DSC; glycine 0.05 M; reversible: yes; structure 1LZ1; whole UniProt chain shown

Variant	Tm	heat capacity change of unfolding	unfolding enthalpy (calorimetric)	unfolding enthalpy (van 't Hoff)
MKALIVLGLVLLSVTVQGKVFERCELARTLKRLGMDGYRGISLANWMCLAKWESGYNTRATNYNAGDRSTDYGIFQGNSRYWCNDGKTPGAVNACHLSCSALLQDNIADAVACAKRVVRDPQGIRAWVAWRNRCQNRDVRQYVQGCGV [I77G]	59.2 °C	0.86 kcal/mol/K	98.6 kcal/mol	100 kcal/mol

Same assay, conditions: Homo sapiens; pH 3.16; Thermal; DSC; glycine 0.05 M; reversible: yes; structure 1LZ1; whole UniProt chain shown

Variant	Tm	heat capacity change of unfolding	unfolding enthalpy (calorimetric)	unfolding enthalpy (van 't Hoff)
MKALIVLGLVLLSVTVQGKVFERCELARTLKRLGMDGYRGISLANWMCLAKWESGYNTRATNYNAGDRSTDYGIFQGNSRYWCNDGKTPGAVNACHLSCSALLQDNIADAVACAKRVVRDPQGIRAWVAWRNRCQNRDVRQYVQGCGV [I77G]	60.4 °C	0.81 kcal/mol/K	100 kcal/mol	102 kcal/mol
